The target in this assay is human rPrP^C 23-231 (human) (UniProt P04156). Nature of the assay: cell-based or functional assay.

“human sporadic CJD (sCJD) brain homogenate PrP-res (from UniProt P04156 23-230)” displayed an eQuIC seeded conversion of substrate: lowest PrP-res amount detected of 1 fg.

For the origin of these results see patent US20130288389A1.
